Series [1] has as its system CCCCCCOS(=O)(=O)O. The series is described as follows: purified protein. To be noted: 10 mM tris-HCl, pH 7.4, 25 °C, 0.16 μM enzyme.
Substrate in series [2]: CCCCCCOS(=O)(=O)O
The series is described as follows: LC-MS of substrate depletion, hyperbolic fit. Format: biochemical, Saccharomyces cerevisiae. The conditions noted are these: 10 mM tris-HCl, pH 7.4, 25 °C, 1.0 μM enzyme.

Take SdsA1 (Pseudomonas aeruginosa PAO1): in series [1], the Km was 110 ± 17 µM and the kcat was found to be 1.07 ± 0.45 s⁻¹.

B1: Bds1 (Saccharomyces cerevisiae S288C) (protein)
chain: MIGAFKRNRGSSQSFAKECQPSTLKANLEVAKELPFSDRRDFEDATQGYIGSLSDEQIIGPDGGVVWCMKSYGFLEPETPANTVNPSLWRQAQLNAIHGLFKITDNVYQVRGLDISNMTIIEGNTSLIIIDTLFTTETAQESLKLYYRHRPQKPVRTVIYTHSHSDHYGGVKGIVKEADVKSGEVQIIAPVGFMESVVAENILAGNAMHRRSQYQFGMLLSPSVKGHVDCGIGKAASHGTVTLIAPTIIIEEPVEERTIDGVDFVFQLAPGSEAPSEMLIYMPQQRVLNMAEDVTHHMHNLYALRGVEVRDGNQWAKYIDAARVAFGSKTDVLIAQHHWPTTGQMRINELLKKQRDMYKFIHDQTLRLLNQGYTSRDIAETLRMPSSLEQEWSTRGYYGTLSHNVKAVYQKYLGWYDANPANLNPLPPVAYAKKAVEYMGGADAVLARAYKDFQKGEFRWVASVVNQLVFADPNNHQARELCADALEQLGYQAEASTWRNAYLVGAMELRQGVPKRRSTGKRNNIAVLNNEMFFDFLAVRLNATKAEGKIIVSNWCFINSNERFVITLENCALTYIQGWQTDADATITLKRTTFEALLANEITMVDFLRSKEVEIEGNRLRIEELLKLFDDFDQSFPVVEPMGGST
B1: in series [2], the Km worked out at 300 ± 115 µM and the kcat stood at 0.0067 ± 0.0017 s⁻¹.
